Test: soluble on expression in E. coli; label from the status in PepcDB or PDB records

Sequence | soluble on expression in E. coli
MSLGTLWWNGTFFTMVHEGDQVEAVFTEDGKIVAIGTAEELRQRYSTRINQEMNCDGAYVYPGFVDSHLHMIGHGEKLLRLDLSTVMNAEDMREKLMERVALTEEGDWVTAEGWNENNFPDQKIFHRNELDEIAPNHPMILTRVCRHAILVNSKALQLAGISKDTTDPPGGRIVRDELGEPTGYLLDTAQELVKRVAPSVSAAYLERALAAAVDDMVAKGLVGGHTEDLGYYLGFNQTFATFQRVIDGNTRRFRAHLLVHHEVIDDMIKAGYCKGPVGEWLEFGAMKIFADGAFGGRTALLSEPYCDAPTTSGVAIHTQEQLTNLIKKARQYKLPVAIHTIGDEALRMAITSIEAHPVTEGRDRLIHTQVTPPSLVERMKKLKVILDIQPAFVPADFPWVEERLGNERLSYSFAWKTLLRSGMALAGGSDAPIEEVDPLYGIYAAVARKKPTDQHEGYLPEEKLTRYEALQLYTTGSAYAIEREHERGNIRPGYVADFTMLNRNLFTCREEELLTTRVEKTVIGEAIVFQAKGIITITTDPNSSSVDKLAAALEHHHHHH | soluble
MSLGYKQIRDVSVLCDFAANCTLSLNPGTGENAPGIGLYRSSKADSIPELRLSFSEQMPKTGKLEILVDGKPELDTNIAALKVRNNELVYVDEAGVAKLIGAMKNGQKLQLKLADKVSGYSLSGFVGGLIYLDEQQARDGTVAALQVKGTKPAPAAPDITLIETVEQIPEGIRKDFSDDAATCGGASPESFRLAGGFVTKIADGLNLVGLPCGAPGAYNQPYVFYSRYENRIVPVSLPVISDDGPTTTDSAWNIDWNNRTRTLTGFFKGRGIGDCGTYDVWKAVDSGEGRVSFVLKEERAKGDCDGNYAGGPQNWPASWPPKTKEGHHHHHH | soluble
MSLHDYCLPCPTSLSGIAEVNPMSKPLVRWPINPLRTAVIVVDMQKVFCEPTGALYVKSTADIVQPIQKLLQAARAAQVMVIYLRHIVRGDGSDTGRMRDLYPNVDQILARHDPDVEVIEALAPQSDDVIVDKLFYSGFHNTDLDTVLRARDVDTIIVCGTVTNVCCETTIRDGVHREYKVIALSDANAAMDYPDVGFGAVSAADVQRISLTTIAYEFGEVTTTAEVIRRIESAYPHGREGHHHHHH | soluble
MSLHLNVAQQLYNAEITAGSLLLKESRAIAQLLLQSADETAWRQAIAIDNILQKTSPASAKRMSSLIRKRLELMPRELWSMIADGTTEVAIQSLMAAAIKHSRLLGDFMLKVLQRHYREFNPKILSREWDSFLAECAHIDPAVASWSQSTRKKVGQVAYRILSEAGYLDNTRSLKLQPVLIAPEVSKFLNSHDEKYILKCMEIAHEEGHHHHHH | soluble
MSLHPADFIEKPPRFPVVDGHVDLVYDLMRRHPGIPFEQVADGQVTAQSLKKGGVWVLVAALYCADSHNGPASAAREMRRLHDYACRYLEWFALLRSPGEMAAALGGSGPPGIVFLVENADALLELDLDEVRRWGVRAVGLTHAGRNRLADGNGVTDPKGLTAAGKSLVRSIAGAGLILDVAHLAEPGFREVASLVTGPLISSHTGLRSFCDRPRNLSDPQVAEIARRGGVVGISAAPEMLVPGGTATLDDLFRQVDHVVQRHGPEAVGIGSDFGGFDDTAKGAEDHGGLPLLAERLLGAGYPAGAVGLIMGGNWCRIYGGIEGHHHHHH | soluble
MSLHVGAGKSFGTAEANENERRWNDDKIDRKNQDPTNHYDRTRMKLNFEIGPDGKIHPLGYQEKSLEVRLQERLDELGWKPFKADSKIQPNCCAKFVFGGNHDRTLEMAFGNQSVNLEKGADNSHLHRCEEIENWAKDVYDWCVQIYGQENIVGFQVHLDESSPHIHALVVPVGIRPKSGRKCVMWSAKFGKDRYEYGQILKEMHTFLYEDVGSKYGLERGDSIEGRNVHHLHKRDYIRKLTKEAKQAEKAVKGLQSMMRNLESKIFSYRLQLEETEKELASGKITLDRYEAQKADIQKLIAEYQTKLEDKTDKLHAKEQELERLTADATKARSVVQPFRNHKVDFMPPQITEKVPLFGTDKWVERQNQRIAKQFTEIVRKIESLYRNDAARQVEAAQRNVLADYGELYQLRRENKSLSDTNESLESELNTLLDQLAIPSARNLIFAVADALIGGQPVPVSSGGGGSTSDLPWDGRRSDEEEEAYRRRCLMFAIVTVCKQQTKSRREGHHHHHH | soluble
MSLHWLFGDQLGPHFLTPGEEGPGPETPLLMIEARSVFRRRRFHRAKAHLVLSAMRHRAAEPGDRVTYVRADTYRQGLARTARGRPVGVHHPTSHAALRLVRALPQVTVGPARGFLVPMTGFAAWAEGHGGKRLRQEDFYRWVRRGHGLLMDGEQPAAGRWNLDHDNREPPPREAASLQVGRPYRPREDDIDEEVRHDLDRWERDGDVSFVGRDGPRLFEGHHHHHH | soluble
MSLIDILVVDDDVAVCAALRLVLKRAGYNPVIANSPDEALSIMRNPDGGCKPAVILMDMNFSLSTSGREGLELLEKMQIFTSCPVILMTAWASIPLAVEGMRLGAFDFIGKPWDNDRLLRTIDTALHLAAPSAVANPSEQSDRDTARQPKATVQENDPCAHIIGRSDAICKIKERIRRIAPTHASVLITGESGTGKELIAEALHRGSKRASAPFVKVNLGGIPESLFESELFGHKKGAFTNAFSDRKGRFELADGGTIFLDEIGELPVGNQVKLLRVLQEQTFEPLGESVSHRVDIRVVSATNASLERMVAEGRFREDLYYRINLIHLHLPPLRERQEDIQLLVEAFSEAFAQSNGLPHAVWSAEAMRRICAMPLPGNVRELKNVVERTLLLSGSREISARDVADEGHHHHHH | soluble
MSLIDYQEVLSRYRPTQEEENKLKIISDDIIRKINSICRSRGLRAEAVIVGSYAKGTNLRDGDLDIFIAFDRDYPEEIINTEGLHIGHAVIPNGREKYAEHPYVSGEIGGVKIDVVPCYKMSFGDKKISAVDRTLLHTEYVNGHLDEKGRDEVRLLKIFTKSIGVYGAEARTFGFSGYLCELLVIRFGSFENVIRYFSKAKGRVLIDLDERFRDPMVLIDPVDPDRNVASPVSLESLSRMKIASKMFLSSPDEGFFQIEHNGKNVQYHDRGTCIMIYSLPKPDLTDDVIYPQVYRFRSVLQKIMESHEIRVISSEIDVSDRIYVLIETPACAEERIRVHTGPPVDTDNAVDFVNSWKARDRSRGPYIVADRLYVDVFTGQRSIEDIVRQEIFNYSIGKNLDRFKKSMEIMKFNVGMKSLPVLDKFFGADVFRKEGHHHHHH | soluble
MSLIGFLSDRQGFEKQYHDIDLSSFGIREGISEIIASTGFEHPNAAPIGIVMKGERPFVRLFKGSHTWENVLKEKCLASNVVYDPILFVRSTFSDLVPSEFEYVDAGEFKFPVLKEAIAWVVFECINLRNTDQSLVADLVPLNAGFNERNIKELPVPNRGFNAVLEATVHATRYQLTGEEKYLELIRHYESLASKCGGDAEKKAMKLIYEALGLEGHHHHHH | soluble
MSLIIDVLQHVPHEGPGLIANWARENQHQLKIHTLFEENEHVPKDSDFLIVLGGPMGINDTAEFPWLKDERKLIKRLSEQHKPVFGVCLGAQQIAATFGSEITVNKVKEVGWFPVKRTSDKLSFFPESLNVFHWHQDTFALPAGATRLFASEGCLNQAFLYGENIIGLQFHFEMEKAGIETILQIDEAFITPGKYVQSVEVMREKDVPEDNKQMLEAILDYLINPKTIEGHHHHHH | soluble
MSLIILTRDDEPRIFTPDSDAASPALHSTSPLPDPASASPLHREEKILPKVCNIVSCLSFSLPASPTDSGLASPTIITREGQQFWAKCLIWKYQLYLHGLHKKSDGRRDKQISASPST | soluble
MSLIIQVSPAGSMDLLSQLEVERLKKTASSDLYQLYRNCSLAVLNSGSHTDNSKELLDKYKNFDITVMRRERGIKLELANPPEHAFVDGQIIKGIQEHLFSVLRDIVYVNMHLADSQRLNLTNATHITNLVFGILRNAGALIPGATPNLVVCWGGHSINEVEYQYTREVGHELGLRELNICTGCGPGAMEGPMKGAAVGHAKQRYSEYRYLGLTEPSIIAAEPPNPIVNELVIMPDIEKRLEAFVRMAHGIIIFPGGPGTAEELLYILGIMMHPENADQPMPIVLTGPKQSEAYFRSLDKFITDTLGEAARKHYSIAIDNPAEAARIMSNAMPLVRQHRKDKEDAYSFNWSLKIEPEFQLPFEPNHESMANLDLHLNQRPEVLAANLRRAFSGVVAGNVKAEGIREIERHGPFEMHGDPVLMKKMDQLLNDFVAQNRMKLPGGSAYEPCYKIVTEGHHHHHH | soluble
MSLIKFNIAQWRAWAPGLESVDAWQAWSRQPALPENSDAAPDVSFLPAMQRRRLSRLARMAFSVGWPLAEGLEQLPLVFISRHGETPRTFEILSDLAAEQPLSPTQFSLSVHNAVIGLWSIMRGETSEMTALAAAGDGLEHGLLEAATLLADGAPHVLLVITEEQPPEAYASWIDDVPFPYALGLLLTPGDDWQLSLGSHDGQTPRAQWPHALNLLRTLLGAQTFCQHAWMNRVWTWQRNHEGHHHHHH | soluble
MSLILKEGEVVFEVPDKLTVTKKDEVFYNPRMKTCRDISIAVIQAFLNLYHKRDKFYIADALAGSGIRGLRYAKELEFNGELKVFLNDINPKAYEKIINNAKLNEIENIDVFNEDANTFLSKHFRFFNVVDIDPFGSPAPYVEQAIRALVTRNGLLCLTATDTAALCGRSKKSCLRKYLAYPLFGRDCHEFALRVLVGYVMRMATKYELALKPVFCHATDHYVRVYLVTDRGAKRADKVFEMLGYVKDVNGIKIIKKFEEGYEKGFAGPLYIGNLYDKALVEEALKIAEKREFSERVLKILNAIKGESAINQVGCYDTHQIGKMLKISVPPMQDIINKLKEMGFNAVVTHYNPKGIKTDATLKNVIEAIYQCTKIREGHHHHHH | soluble
MSLILVKDAIITGKKQDLLVEGNIIKKIGNISISEVSKDETEIIDGKNCVLIPGLINTHTHVPMSLFRGVADDIPLMEWLSGHIWPMESKLNEKIVYAGTLLGTIEMIKSGTTAFNDMYFFLDSIIKAVDETGIRSTIAYGMIDLFDEEKREKELKTAKESLEMIKNLNNSRITGALGPHAPYTCSKEILESTNALAREYNVPIHIHMNETLDEINQVVEKTGMRPFEYLNSFGFFDNVNTICAHCVHLSASEIQIMKEKNIFAAHNPVSNLKLASGVSPVLKLLENNIPVTLGTDGCGSNNNMNLFEEIKAAALIHKGVNLNPVAVIAKDAFDFGTKNGAKALNINSGEIKEGKLADFVLINMKKPYLTPKENIESHLVYSFNGVVDKVVIDGKLVLNDGKMVNIDEEKVYEIAEEAYFELANEGHHHHHH | not soluble
MSLIMTTFIQLHLLTAYAPANLNRDESGRPKTAFMGGVERLRVSSQSLKRAWRVSETFEAAMDGFMGKRTRRIGVDYVYRPMKDAGIEEKIAKSSSELIAKQFGKLKSDKDAKPEKNLEIEQIVHVSNHEISLIKQLVDTLIADKREPNDEEVKLLRKEQRSVDMALFDRMLASSPEFNVEAACQVSHALGVSAVTVESDFFTAVDDLNNKEEDAGSGHMGEQGFASALFYTYVCISRDLLVENLGGNEELAKRTIAALTETALTVSPTGKQNSFASRAYATYALAEVGQKQPRSLAAAFFQPVRDTDQIPAAITRLKQQRASFDSVYGNCADDYRELNVQEGTGSLAELLAFVSQEGHHHHHH | soluble
MSLIRIDFSQLHQAREDAAAAMPSIAGKKILMGFWHNWPAGAADGYQQGSFANIALEDVPSEYNVVAVAFMKGRGIPTFQPYNLSDAEFRRQVGVLNAQGRAVLISLGGADAHIELHAGQEQALAAEIVRLVETYGFDGLDIDLEQSAIDLADNQRVLPAALKLVREHYAGQGKHFIVSMAPEFPYLHKNGKYVPYLQALEGVYDFIAPQYYNQGGDGLWVQEANGGKGAWIAQNNDAMKEDFLYYLTESLATGSRDFVRIPAQRLAIGLPSNVDAAATGYVIDPAAVSNAFRRLEAAGHAIKGLMTWSVNWDDGLNKRGERYNWEFRKRYASLIHDGEGGDQRPAAPQGLRLLERGETSLVLAWNASSGQRPIDYYSLYRDGAMVGQSAALGSTDSGLTADTRYSYFVTATDTQGNQSLPSEGLEVSTSGGAVDPQFPQWRENQAYRVDDGVTYEGLRYLCLQAHTSNSGWTPPVAFTLWREGGSHHHHHH | soluble

From the DeepSol protein solubility set
